B1: OleTJE: P450 decarboxylase from Jeotgalicoccus sp. ATCC 8456, decarboxylates C12 to C20 free fatty acids to α-olefins (protein, listed as Jeotgalicoccus sp.)
chain: MATLKRDKGLDNTLKVLKQGYLYTTNQRNRLNTSVFQTKALGGKPFVVVTGKEGAEMFYNNDVVQREGMLPKRIVNTLFGKGAIHTVDGKKHVDRKALFMSLMTEGNLNYVRELTRTLWHANTQRMESMDEVNIYRESIVLLTKVGTRWAGVQAPPEDIERIATDMDIMIDSFRALGGAFKGYKASKEARRRVEDWLEEQIIETRKGNIHPPEGTALYEFAHWEDYLGNPMDSRTCAIDLMNTFRPLIAINRFVSFGLHAMNENPITREKIKSEPDYAYKFAQEVRRYYPFVPFLPGKAKVDIDFQGVTIPAGVGLALDVYGTTHDESLWDDPNEFRPERFETWDGSPFDLIPQGGGDYWTNHRCAGEWITVIIMEETMKYFAEKITYDVPEQDLEVDLNSIPGYVKSGFVIKNVREVVDRT
B2: Sm46: olefin-producing enzyme from Staphilococcus massiliensis, SEQ ID NO:8 (protein, listed as Staphylococcus massiliensis)
chain: MFVDSILVLRLNLLKTGIQLEMKNGGIKVAKKLPKVKGLDNTVDIIKGGYTYVPGKLEEFDSKAFEVRALGGKKIAVMSGKEAAEIFYDNEKMERQGTLPKRIVNTLFGKGAIHTTAGKKHVDRKALFMSLMTDENLNYLRELTRNYWFMNTERMQSMDKVNVYNESIYMLTKIGFRWAGIIQTPEEAEQNAKDMDTMINSFVSLGSAYKGYKKAKKARKRVEDFLEKQIIDVRKGKLHPEEGTALYEFAHWEDLNDNPMDSHLCAVDLMNVVRPLAAINRFISYGVKVLIEFDQEKEKLRLENNEDYAYKFAQEVRRIFPFVPYLPGRAAVDLEYDGYKIPAGMMTALDVYGTTHDEDLWENPDQFNPNRFDNWDGSPFDLIPQGGGDFYTNHRCAGEWITVIIMEETMKYFANKIEFDVPSQDLSVKLDKLPGNVTSGTIISNVRPRVARK
B3: Bs168: P450BSβ fatty acid hydroxylase from Bacillus subtilis subsp. subtilis str. 168, SEQ ID NO:4 (protein, listed as Bacillus subtilis)
chain: MNEQIPHDKSLDNSLTLLKEGYLFIKNRTERYNSDLFQARLLGKNFICMTGAEAAKVFYDTDRFQRQNALPKRVQKSLFGVNAIQGMDGSAHIHRKMLFLSLMTPPHQKRLAELMTEEWKAAVTRWEKADEVVLFEEAKEILCRVACYWAGVPLKETEVKERADDFIDMVDAFGAVGPRHWKGRRARPRAEEWIEVMIEDARAGLLKTTSGTALHEMAFHTQEDGSQLDSRMAAIELINVLRPIVAISYFLVFSALALHEHPKYKEWLRSGNSREREMFVQEVRRYYPFGPFLGALVKKDFVWNNCEFKKGTSVLLDLYGTNHDPRLWDHPDEFRPERFAEREENLFDMIPQGGGHAEKGHRCPGEGITIEVMKASLDFLVHQIEYDVPEQSLHYSLARMPSLPESGFVMSGIRRKS
B4: Aa162: decarboxylase (olefin-producing enzyme) from Alicyclobacillus acidocaldarius, SEQ ID NO:6 (protein, listed as Alicyclobacillus acidocaldarius)
chain: MNQCIPRDRTFDSSLALIKEGYLFIKNRVDQYQSDIFEARLLLENVVCMHGAEAAKLFYNTELFQRQGALPKRVQKTLFGENAIQTLDGTAHLHRKQLFLSLLTPDQEKSLATLATTQWRECAKVWENADRVVLFEEAKRMLCRIACQWTGVPLDESEVSKRADDFGAMVDAFGAVGPRHWKGRRARARAEAWLRQMIDEIRIGLRSVDEHTPLHVVAFWRDVNGNLLDAQMVAIELINLLRPIVAISTFITFSALALHEHPTWRDRLKARNEADIEMFVQEVRRYYPFAPFLGARVKKDFVWRGYEFKRGTLVLLDVYGTHHDARLWDSPNEFRPERFMRKTVGPFDLIPQGGGDSHTGHRCPGEGATIEIMKASVDFLVNQIDFEVPAQDLSYRLDVMPTLPKSGFVLTHVHRKFIASPTIATPNGSEALPSEV
B5: Sm46-del29: truncated variant of Sm46 with the N-terminal 29 amino acids deleted, SEQ ID NO:13 (protein)
chain: AKKLPKVKGLDNTVDIIKGGYTYVPGKLEEFDSKAFEVRALGGKKIAVMSGKEAAEIFYDNEKMERQGTLPKRIVNTLFGKGAIHTTAGKKHVDRKALFMSLMTDENLNYLRELTRNYWFMNTERMQSMDKVNVYNESIYMLTKIGFRWAGIIQTPEEAEQNAKDMDTMINSFVSLGSAYKGYKKAKKARKRVEDFLEKQIIDVRKGKLHPEEGTALYEFAHWEDLNDNPMDSHLCAVDLMNVVRPLAAINRFISYGVKVLIEFDQEKEKLRLENNEDYAYKFAQEVRRIFPFVPYLPGRAAVDLEYDGYKIPAGMMTALDVYGTTHDEDLWENPDQFNPNRFDNWDGSPFDLIPQGGGDFYTNHRCAGEWITVIIMEETMKYFANKIEFDVPSQDLSVKLDKLPGNVTSGTIISNVRPRVARK
modifications: Sm46-del29

Assays:
Assay type in all cases: biochemical
[1] = In vitro olefin biosynthesis assay with supernatant of E. coli lysates expressing the enzyme, GC/MS; settings: for fatty acid decarboxylase activity (α-olefin production): C12, C14 or C16 fatty acid substrate (1 mM), H2O2 500 μM
Method: FIG. 4: In vitro production of α-olefins by OleTJE, Bs168, Aa162 and Sm46. Genes encoding OleTJ, Bs168, Aa162 and Sm46 were recombinantly expressed in E. coli. The supernatant of the E. coli lysates was used in an in vitro assay for α-olefin biosynthesis in the presence of C12, C14 or C16 fatty acid substrate (1 mM) and H2O2 (500 μM). C11, C13 and C15 α-olefin production by the different enzymes is indicated as the area under the gas chromatographic (GC) peak.
E. coli BL21(DE3) cells (Novagen) carrying a recombinant plasmid or an empty PET28a plasmid (control) were cultured for several cycles to ensure best growth state at 37° C. in 10 mL LB medium supplemented with 50 μg/ml of kanamycin, followed by inoculation (1:100 ratio) into 50 mL fresh Terrific Broth medium containing 50 μg/ml of kanamycin, 1 mM thiamine, 10% glycerol and a rare salt solution (6750 mg/l FeCl3, 500 mg/l ZnCl2, 500 mg/l CoCl2, 500 mg/l Na2MoO4, 250 mg/l CaCl2, 465 mg/l CuSO4, and 125 mg/l H31303) at 37° C. Cells were grown at 37° C. for 3 to 4 h until the optical density at 600 nm (OD600) reached 0.6 to 0.8, at which 0.2 or 0.4 mM isopropyl-β-D-thiogalactopyranoside (IPTG) and 0.5 mM 5-aminolevulinic acid were added, followed by 18 h of cultivation at 16° C.
Then, the cell cultures were recovered by centrifugation (at 4° C.) and re-suspended in 1.5 mL 50 mM Tris buffer, pH 7.5, containing 0.1 M NaCl. The re-suspended cell cultures were disrupted by sonication and centrifuged at 13,000×g for 30 min (4° C.). The supernatant was collected and the pellet was re-suspended in 1.5 mL 50 mM Tris buffer, pH 7.5, containing 0.1 M NaCl for further analysis. An SDS gel was run to check the expression of the genes using 15 μL of supernatant or pellet solution mixed with 5 μL of 4× loading buffer (FIG. 3).
In vitro olefin biosynthesis was evaluated by adding to the supernatant a fatty acid substrate in DMSO to a final concentration of 0.2 mM (1:100 dilution) or 1 mM (1:10 dilution), and 500 μM H2O2. The reaction mixture was incubated at 28° C. for 2-3 h, or stopped using 50 μL of 10 M HCl at t=0, 15, 30, 60 and 120 min for a dynamic test. Then, C16 fatty acid was added at a final concentration of 0.2 mM (1:100 dilution) as an internal standard. 300 μL reaction mixture of each reaction condition was extracted with equal volume of ethyl acetate, and the organic phase was analyzed for hydrocarbons by gas chromatography/mass spectrometry (GC/MS). In the meanwhile, undecene of different concentrations (0, 0.05 mM, 0.1 mM, 0.2 mM and 0.5 mM) were tested to produce a standard curve.

[2] = Reaction of purified enzymes with C14 fatty acid, analysis of decarboxylation and hydroxylation products; settings: compared with Bs168 and Aa162; FIG. 7
Method: FIG. 7: In vitro production of α-olefins by Aa162, Bs168 and Sm46-del29. Recombinantly expressed and purified enzyme (0.2 μM) was used in an in vitro assay for α-olefin biosynthesis in the presence of C14 fatty acid substrate. The conversion percentages are shown for, from left to right, C14 free fatty acid substrate, C13 α-olefin, α-hydroxy C14 fatty acid, β-hydroxy C14 fatty acid.
Recombinantly expressed and purified Bs168 and Aa162 from Example 1 and Sm46-del29 of Example 2 were reacted with C14 fatty acid and the products of decarboxylation (C13 α-olefin) and hydroxylation (α-OH—O14 fatty acid and β-OH—C14 fatty acid) reactions were analyzed.

[3] = Fatty acid decarboxylation assay with purified Sm46-del29, GC
Method: FIG. 6: In vitro conversion of free fatty acids into α-olefins by a truncated variant of Sm46: Sm46-del29. Conversion percentages of the free fatty acid substrates (A) and the corresponding α-alkene products (B) are shown.
The fatty acid decarboxylation assays containing 1.0 μM Sm46-del29, 200 μM fatty acid substrate (from C8 to C20), 220 μM H2O2 in 200 μl of storage buffer were carried out at 28° C. for 2 h. Reactions were quenched by the addition of 20 μl of 10 M HCl. Heptadecanoic acid was added as internal standard and the mixture was extracted by 200 μl ethyl acetate. Following extraction, the organic phase was collected and analyzed by gas chromatography as described below.
The GC analytical method for hydrocarbon and fatty acid samples was adapted from Guan et al. (2011 J Chromatogr A 1218:8289-8293). The analyses were performed on an Agilent 7890B gas chromatograph equipped with a capillary column HP-INNOWAX (Agilent Technologies, Santa Clara, Calif., USA; cross-linked polyethylene glycerol, i.d. 0.25 μm film thickness, 30 m by 0.25 mm). The helium flow rate was set to 1 ml per minute. The oven temperature was controlled initially at 40° C. for 4 min, then increased at the rate of 10° C. per min to 250° C., and held for 5 min. The injecting temperature was set to 280° C. with the injection volume of 1 μl under splitless injection conditions. The response factors between fatty acids and alkenes were determined by analyzing known authentic fatty acids (C10-C20), 1-alkenes (C9-C19) and 1-heptadecanoic acid standards as described in Liu et al. (2014 Biotechnol. Biofuels 7:28).

[4] = C12, C14 or C16 fatty acid substrate, FIG. 4

Molecule | fatty acid decarboxylase activity (α-olefin production) ([1]; FIG. 4) | substrate preference [1, 4] | also measured
B1 | fatty acid decarboxylase activity |  | 
B2 | fatty acid decarboxylase activity |  | substrate preference ([1]; later experiments, data not shown): substrate preference for C12 fatty acid substrate
B3 | fatty acid decarboxylase activity | preference for C12 fatty acid substrate | 
B4 | fatty acid decarboxylase activity | preference for C12 fatty acid substrate | 
B5 |  |  | formation of hydroxy fatty acids [2]: formed less hydroxy fatty acids; decarboxylase activity ([3]; 1.0 μM enzyme, 200 μM fatty acid, 220 μM H2O2, 28° C., 2 h, FIG. 6): had decarboxylase activity; decarboxylation of C10 free fatty acid ([3]; C9 α-olefin not detected due to volatility): able to decarboxylate C10 free fatty acid; substrate preference for α-olefin production ([3]; among tested fatty acid substrates C8 to C20, FIG. 6): substrate preference for C12 free fatty acid

Source: patent US10407638B2, “Production of alpha-olefins” (TOTAL RAFFINAGE CHIMIE, priority 2015, dated 2019)
